Results as given in the RNAGym collection of RNA variant scans (doi:10.7554/elife.80360).

B1: HDV Ribozyme (parent)
chain: GGCCGGCAUGGUCCCAGCCUCCUCGCUGGCGCCGGCUGGGCAACAUUCCGAGGGGACCGUCCCCUCGGUAAUGGCGAAUGGGACCCA

Variants of: B1
Experiment: self-cleavage, relative activity (ratio to wild type); higher = more cleavage; co-transcriptional

In order of rising self-cleavage:
1. GGCCGGUAUGGUCCCAGACUCCUCGCUGGCGCCGGCUGGGCAACAUUCCGAGGGGACCGUCCCCUCGGUAAUGGCGAAUGGGACCCA [C7U C18A]  0
2. GGCCGGCAUGGUCCAAGCCUCCUCGCUGUCGCCGGCUGGGCAACAUUCCGAGGGGACCGUCCCCUCGGUAAUGGCGAAUGGGACCCA [C15A G29U]  0
3. GGCCGGCAUGGUCCCAGCCUCCUCGCUGGGGCCGGCUGGGCAACAGUCCGAGGGGACCGUCCCCUCGGUAAUGGCGAAUGGGACCCA [C30G U46G]  0.0361
4. GGCCGUCAUGGUCCCAGCCUGCUCGCUGGCGCCGGCUGGGCAACAUUCCGAGGGGACCGUCCCCUCGGUAAUGGCGAAUGGGACCCA [G6U C21G]  0.0361
5. GGCCGGCUUGGUCCCAGCCUCCUCGCUGGGGCCGGCUGGGCAACAUUCCGAGGGGACCGUCCCCUCGGUAAUGGCGAAUGGGACCCA [A8U C30G]  0.0369
6. GGCCGGCUUGGUCCCAGCCUCCUGGCUGGCGCCGGCUGGGCAACAUUCCGAGGGGACCGUCCCCUCGGUAAUGGCGAAUGGGACCCA [A8U C24G]  0.0405
7. GGCCGGCAUGGUCGCAGCCUGCUCGCUGGCGCCGGCUGGGCAACAUUCCGAGGGGACCGUCCCCUCGGUAAUGGCGAAUGGGACCCA [C14G C21G]  0.0449
8. GGCCGGCAUGGUCCCAGCCUCCUCGCUCGCGCCGGCUGGGCAACAUUCCGAGGGGACCGUCCCCUCGGUACUGGCGAAUGGGACCCA [G28C A71C]  0.0475
9. GGCCGGCAUGGUCCCAGCCUCCUCGCUGGCCCCGGCUGGGCAACAUUCCGAGGGGACCGUCCCCUCGGUACUGGCGAAUGGGACCCA [G31C A71C]  0.0475
10. GGCCGGCAUGGUCCCAGCCUCAUCGCUGGCGCCGGCUAGGCAACAUUCCGAGGGGACCGUCCCCUCGGUAAUGGCGAAUGGGACCCA [C22A G38A]  0.0608
11. GGCCGGCAUGGUCCCAGCCUCCUCGCUGGCGCCGGCUGGGGAACAUUCCGAGGGGACCGUCCCCUCGGUAAUGGCGAAUGGAACCCA [C41G G82A]  0.0811
12. GUCCGGCAUGGUCCCAGCCUCCUCGUUGGCGCCGGCUGGGCAACAUUCCGAGGGGACCGUCCCCUCGGUAAUGGCGAAUGGGACCCA [G2U C26U]  0.0852
13. GGCCGGCAUGGUCCCAGCCGCCUCGCUGGCGCCGGCUGGGCCACAUUCCGAGGGGACCGUCCCCUCGGUAAUGGCGAAUGGGACCCA [U20G A42C]  0.0875
14. GGCCGGCAUGGUCCCAGCCUCCUCGCUGUCGCCGGCUGGGCAACAUUCCGAGGGGACCGUCCCCUCGGUAAUGGCGAAUGGGACCCA [G29U]  0.0885
15. GGCCGGCAUGUUCCCAGCCUCCUCGCUGGCGCCGGCUGUGCAACAUUCCGAGGGGACCGUCCCCUCGGUAAUGGCGAAUGGGACCCA [G11U G39U]  0.0936
16. GGCCGGCAUGGUCCCAGCCUCCUCGCUAGCGCCGGCUGGGCAACAUUCCGAGGGGACCGUCCCCUCGGUAACGGCGAAUGGGACCCA [G28A U72C]  0.101
17. GGCCGGCAUGGCCCCAGCCUCCUCGCUGGCGCGGGCUGGGCAACAUUCCGAGGGGACCGUCCCCUCGGUAAUGGCGAAUGGGACCCA [U12C C33G]  0.101
18. GGCCGGCAUGGCCCCAGCCUCCUCGCUGGCGCCGGCUGGGCAACAUUCCGAGGGGACCGUCCCCUCGGUAAAGGCGAAUGGGACCCA [U12C U72A]  0.107
19. GGCCGGCAUGGUCCCAGCCUCCUCGCUGGCACCGGCUGGGCUACAUUCCGAGGGGACCGUCCCCUCGGUAAUGGCGAAUGGGACCCA [G31A A42U]  0.107
20. GGCCGGCAUGGUCCCAGCCUCCACGCUGGCGCCGGCUGGGCAACAUUCCGAGGGGACCGUCCCCUCGGUAAUGGGGAAUGGGACCCA [U23A C75G]  0.116
21. GGCCGGCAUGGUCCCAGCCUCUUCGCUGGCGCCGGCUGGGCCACAUUCCGAGGGGACCGUCCCCUCGGUAAUGGCGAAUGGGACCCA [C22U A42C]  0.122
22. GGCCGGCAUGGUCCCAGCCUCGUCGCUGGCGCCGGCUGGGCAACAUUCCGAGGGGACCGUCCCCUCGGUAAUGGCGAAUGGGGCCCA [C22G A83G]  0.126
23. GGCCGGCAUGGUCCCAGCCUCCUCGCUAGCGCCGGCUGGGCAACAUUCCUAGGGGACCGUCCCCUCGGUAAUGGCGAAUGGGACCCA [G28A G50U]  0.132
24. GGCCGGCCUGGUCCCAGCCUCCUCUCUGGCGCCGGCUGGGCAACAUUCCGAGGGGACCGUCCCCUCGGUAAUGGCGAAUGGGACCCA [A8C G25U]  0.138
25. CGCCGGCAUGGGCCCAGCCUCCUCGCUGGCGCCGGCUGGGCAACAUUCCGAGGGGACCGUCCCCUCGGUAAUGGCGAAUGGGACCCA [G1C U12G]  0.145
26. GGCCGGCAUGGUCCCAGCCUCCUCGCUGGCGCCGGCUGGGCAACAUUCCGAGGGGACCGUCCCGUCGGUAAUGGUGAAUGGGACCCA [C64G C75U]  0.163
27. GGCCGGCAUGGUCGCAGACUCCUCGCUGGCGCCGGCUGGGCAACAUUCCGAGGGGACCGUCCCCUCGGUAAUGGCGAAUGGGACCCA [C14G C18A]  0.17
28. GGCCGGCAUGGUCCCAGCCUCCUCGCUGGCCCCGGCUGGGCAACAUUCCGAGGGGACCGUCCCCUCGGUAAUGGCGAAUGCGACCCA [G31C G81C]  0.194
29. GGCCGGCAUGGUCCCAGCCUCCUCGCUGGCGCCGGCUGGGCAACAUUCGGAGGGGACCGUCCCCUCGGUAAUGGUGAAUGGGACCCA [C49G C75U]  0.201
30. GGCCGGCAUGGUCCCAGCCUCCUCGCUUGCGCCGGCUGGGCAACAUUCCGAGGGGACAGUCCCCUCGGUAAUGGCGAAUGGGACCCA [G28U C58A]  0.208
31. GGCCGGCACGGUCCCAGCCUCCUCGCUGGCGCCAGCUGGGCAACAUUCCGAGGGGACCGUCCCCUCGGUAAUGGCGAAUGGGACCCA [U9C G34A]  0.208
32. GGCCGGCAUGGUCCCAGCCUCCUCGCUGGCGCCGGCUGGCGAACAUUCCGAGGGGACCGUCCCCUCGGUAAUGGCGAAUGGGACCCA [G40C C41G]  0.222
33. GGCCGGGAUGGUCCCAGCCUCCUCGCUGGCGCCGGCUGGGCAACAUUCCGAGUGGACCGUCCCCUCGGUAAUGGCGAAUGGGACCCA [C7G G53U]  0.26
34. GGCCGGCAUGGUCCCAUCCUCCUCGCUGGCGCCGGCUGGGCAACAUCCCGAGGGGACCGUCCCCUCGGUAAUGGCGAAUGGGACCCA [G17U U47C]  0.298
35. GGCCGGCAUGGUCCCAGCCUCCUCGCUGGCGCCGCCUGGGCAACAUUCCGAGGGGACCGGCCCCUCGGUAAUGGCGAAUGGGACCCA [G35C U60G]  0.353
36. GGCCGGCAUGGUCCCAUCCUCCUCGCUGGCGCCGGCUGGGCAACAUUCCGAGCGGACCGUCCCCUCGGUAAUGGCGAAUGGGACCCA [G17U G53C]  0.354
37. GGCCGGCAUGGUCCCAGCCUCCUCGCUGGCGCCGGCAGGGCAACAUUCCGAGGGGACCGUCCCCUCGGGAAUGGCGAAUGGGACCCA [U37A U69G]  0.369
38. GGCCGGCAUGGUCCCAGCCUCCUCGCUGGCUCCGGCUGGGCAACAUUCCGAGGGGACCGUACCCUCGGUAAUGGCGAAUGGGACCCA [G31U C61A]  0.38
39. GGCAGGCAUGGUCCCAGCCUCCUCGCUGGCGCCGGCCGGGCAACAUUCCGAGGGGACCGUCCCCUCGGUAAUGGCGAAUGGGACCCA [C4A U37C]  0.415
40. GGCCGGCAUGGUCCCAGCCUCCUCGCUGGCGCCGGCUGGGCAUCAUUCCGAGGGGACCGUCCCCUAGGUAAUGGCGAAUGGGACCCA [A43U C66A]  0.415
41. GGCCGGCAUGGUCCCAGUCUCCCCGCUGGCGCCGGCUGGGCAACAUUCCGAGGGGACCGUCCCCUCGGUAAUGGCGAAUGGGACCCA [C18U U23C]  0.415
42. GGCCGGCAUGGUCCCAGCCUCCUCGCUGGCGCCGGCUGGGCAACAUUCCGAGGGGACCGUCGCCUCUGUAAUGGCGAAUGGGACCCA [C62G G67U]  0.423
43. GGCCGUCCUGGUCCCAGCCUCCUCGCUGGCGCCGGCUGGGCAACAUUCCGAGGGGACCGUCCCCUCGGUAAUGGCGAAUGGGACCCA [G6U A8C]  0.447
44. GGCCGGCAUGGUCCCAGCCUCCUCGAUGGCGCCAGCUGGGCAACAUUCCGAGGGGACCGUCCCCUCGGUAAUGGCGAAUGGGACCCA [C26A G34A]  0.486
45. GGCCGGCAUGGUCCCAGCCUCCUCGCUGGCGCCGACUGGGCAACAUUCCGAGGGGACCAUCCCCUCGGUAAUGGCGAAUGGGACCCA [G35A G59A]  0.494
46. GGCCGGCAUGGUCCCCGCCUCCUCGCUGGCGCCGGCUGGGCAACAUUCCGAGGGGACCGUCCCCUCGGUAAUGGCGAAUGUGACCCA [A16C G81U]  0.519
47. GGCCGGCAUGGUCCCAGCCUCCUCGCUGGCGCCGGCUGGGCAACAUUCCGAGGGGCCCGUCCCCUCGGUAAUUGCGAAUGGGACCCA [A56C G73U]  0.521
48. GGCCGGCAUGGUCCCAGCCUCCCCGCUGGCGCCGGCUGGGCAACCUUCCGAGGGGACCGUCCCCUCGGUAAUGGCGAAUGGGACCCA [U23C A45C]  0.573
49. GGCCGGCAUGGUCCCAGCCUCCUCGCUGGCGCCGGCUGGGCAACAUUUCGAUGGGACCGUCCCCUCGGUAAUGGCGAAUGGGACCCA [C48U G52U]  0.577
50. GGCCGGCAUGGUCCCAGCCUCCUCGCUGGCGCCGGCUGGGCAACAUUCCGAGGGGACCGUCCACUCGGUAAUGGCGAAGGGGACCCA [C63A U79G]  0.682
51. GGCCGACAUGGUCCCAGCCUCCUCGCUGGCGCCGGCUGGGCAACAUUCCGAGGGAACCGUCCCCUCGGUAAUGGCGAAUGGGACCCA [G6A G55A]  0.712
52. GGCCGGCAUGGUCCCAGCCUCCUCGCUGGCGCCGGCUGGGCAACAUUCCGAGGGGACCGUUCCCUCCGUAAUGGCGAAUGGGACCCA [C61U G67C]  0.78
53. GGCCGGCAUGGUCCCAGCCUCCUCGCUGGCGCCGGCUGGGCAACAUUCGGAGGGGACCGUCCUCUCGGUAAUGGCGAAUGGGACCCA [C49G C63U]  0.815
54. GGCCGGCAUGGUCCCAGCCUCCUCGCUGGCGCCGGCUGGGCAACAUUCCGAGGGGAGCGUCCCGUCGGUAAUGGCGAAUGGGACCCA [C57G C64G]  0.849
55. GGCCGGCAUGGUCCCAGCCUCCCCGCUGGCGCCGGCUGGGCAACAUUCCGAGGGGACCGUCCCCUCGGUAAUGGCGAAUGGGAACCA [U23C C84A]  0.911
56. GGCCGGCAUGGUCCCAGCCUCCUCGCAGGCGCCGGCUGGGCAACAUUCCAAGGGGACCGUCCCCUCGGUAAUGGCGAAUGGGACCCA [U27A G50A]  0.967
57. GGCCGGCAUGGUCCCAGCCUCCUCGCUGGCGCUGGCUGGGCAACAUUCCGAGGGGACCGUCCCCUCGGUAAUGGCAAAUGGGACCCA [C33U G76A]  0.978
58. GGCCGGCAUGGUCCCAGCCUCCUCGCUGGCGCCGGCUGGGCAACAUUCCGAGGCGACCGUCCCCUCGGUAAUGGCGAAUGGGACCGA [G54C C86G]  1.02
59. GGCCGGCAUGGUCCCAGCCUCCUCGCUGGCGCCGGCUGGGCAACAUUACGCGGGGACCGUCCCCUCGGUAAUGGCGAAUGGGACCCA [C48A A51C]  1.03
60. GGCCGGCAUGGUCCCAGCCUCCACGUUGGCGCCGGCUGGGCAACAUUCCGAGGGGACCGUCCCCUCGGUAAUGGCGAAUGGGACCCA [U23A C26U]  1.08
61. GGCCGGCAUGGUCCCAGCCUCCUCGCUGGCGCCGGCUGGGCAACAUUCCGAUGGGACCGUCCCCUCGGAAAUGGCGAAUGGGACCCA [G52U U69A]  1.09
62. GGCCGGCAUGGUCCCGGCCUCCUCGCUGGCGCCGGCUGGGCAACAUUCCGAGGGGACCGUCCCCUCGGUAAUGGCGAAUGGGACCCC [A16G A87C]  1.09
63. GGCCGGCAUGGUCCCAGCCUCCUCGCUGGCGCCGGCUGGGCAACAUUCCGAAGGGACCGUACCCUCGGUAAUGGCGAAUGGGACCCA [G52A C61A]  1.19
64. GGCCGGCAUGGUCCCAGCCUCCUCGCUGGCGCCGGCUGGGCAACAUGCCGAGGGGACCGUCCUCUCGGUAAUGGCGAAUGGGACCCA [U47G C63U]  1.27
